From the supplement of paper PMC10567573

B1: C1orf55 (parent)
chain: FTSPDYQQQCHEMAERLEDSVLKG

Variants of: B1
Assay: protein stability index of a GFP-peptide fusion (GPS, HEK-293T) (PSI 1-6); higher = more stable
Details: c terminus: a fixed tail appended
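Note: lentivirally expressed fusions sorted by FACS into six bins by GFP to DsRed ratio, PSI derived from sequencing read proportions per bin multiplied by bin number.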

| Variant | protein stability index |
| --- | --- |
| FTSPDYQQQCHEMATRLEDSVLKG [E15T] | 2.62 |
| FTSPDYQQQCHEMASRLEDSVLKG [E15S] | 2.04 |
| FTSPDYQQQCHEMACRLEDSVLKG [E15C] | 1.96 |
| FTSPDYQQQCHEMAGRLEDSVLKG [E15G] | 2.25 |
| FTSPDYQQQCHEMAHRLEDSVLKG [E15H] | 2.34 |
| FTSPDYQQQCHEMAPRLEDSVLKG [E15P] | 2.33 |
| FTSPDYQQQCHEMAVRLEDSVLKG [E15V] | 2.42 |
| FTSPDYQQQCHEMAQRLEDSVLKG [E15Q] | 1.67 |
| FTSPDYQQQCHEMAWRLEDSVLKG [E15W] | 1.11 |
| FTSPDYQQQCHEMARRLEDSVLKG [E15R] | 2.04 |
| FTSPDYQQQCHEMANRLEDSVLKG [E15N] | 1.36 |
| FTSPDYQQQCHEMAFRLEDSVLKG [E15F] | 1.78 |
| FTSPDYQQQCHEMALRLEDSVLKG [E15L] | 1.57 |
| FTSPDYQQQCHEMAARLEDSVLKG [E15A] | 2.8 |
| FTSPDYQQQCHEMAIRLEDSVLKG [E15I] | 1.86 |
| FTSPDYQQQCHEMADRLEDSVLKG [E15D] | 1.82 |
| FTSPDYQQQCHEMAMRLEDSVLKG [E15M] | 1.8 |
| FTSPDYQQQCHEMAYRLEDSVLKG [E15Y] | 1.22 |
| FTSPDYQQQCHEMAEILEDSVLKG [R16I] | 2.94 |
| FTSPDYQQQCHEMAENLEDSVLKG [R16N] | 2.52 |
| FTSPDYQQQCHEMAEGLEDSVLKG [R16G] | 2.49 |
| FTSPDYQQQCHEMAEVLEDSVLKG [R16V] | 2.45 |
| FTSPDYQQQCHEMAETLEDSVLKG [R16T] | 2.38 |
| FTSPDYQQQCHEMAEFLEDSVLKG [R16F] | 2.29 |

| Variant | protein stability index |
| --- | --- |
| FTSPDYQQQCHEMAEQLEDSVLKG [R16Q] | 2.4 |
| FTSPDYQQQCHEMAELLEDSVLKG [R16L] | 1.77 |
| FTSPDYQQQCHEMAEKLEDSVLKG [R16K] | 1.93 |
| FTSPDYQQQCHEMAEMLEDSVLKG [R16M] | 2.44 |
| FTSPDYQQQCHEMAECLEDSVLKG [R16C] | 2.31 |
| FTSPDYQQQCHEMAEALEDSVLKG [R16A] | 2.08 |
| FTSPDYQQQCHEMAEHLEDSVLKG [R16H] | 2.33 |
| FTSPDYQQQCHEMAEPLEDSVLKG [R16P] | 2.56 |
| FTSPDYQQQCHEMAEDLEDSVLKG [R16D] | 2.85 |
| FTSPDYQQQCHEMAEWLEDSVLKG [R16W] | 1.9 |
| FTSPDYQQQCHEMAEELEDSVLKG [R16E] | 2.45 |
| FTSPDYQQQCHEMAESLEDSVLKG [R16S] | 2.21 |
| FTSPDYQQQCHEMAEYLEDSVLKG [R16Y] | 2.04 |
| FTSPDYQQQCHNMAERLEDSVLKG [E12N] | 1.7 |
| FTSPDYQQQCHVMAERLEDSVLKG [E12V] | 1.88 |
| FTSPDYQQQCHHMAERLEDSVLKG [E12H] | 2.36 |
| FTSPDYQQQCHYMAERLEDSVLKG [E12Y] | 2.35 |
| FTSPDYQQQCHKMAERLEDSVLKG [E12K] | 1.32 |
| FTSPDYQQQCHRMAERLEDSVLKG [E12R] | 1.87 |
| FTSPDYQQQCHGMAERLEDSVLKG [E12G] | 2.13 |
| FTSPDYQQQCHDMAERLEDSVLKG [E12D] | 2.56 |
| FTSPDYQQQCHQMAERLEDSVLKG [E12Q] | 2.23 |
| FTSPDYQQQCHAMAERLEDSVLKG [E12A] | 2.79 |
| FTSPDYQQQCHIMAERLEDSVLKG [E12I] | 2.98 |

| Variant | protein stability index |
| --- | --- |
| FTSPDYQQQCHTMAERLEDSVLKG [E12T] | 1.47 |
| FTSPDYQQQCHLMAERLEDSVLKG [E12L] | 2.7 |
| FTSPDYQQQCHPMAERLEDSVLKG [E12P] | 1.5 |
| FTSPDYQQQCHCMAERLEDSVLKG [E12C] | 1.93 |
| FTSPDYQQQCHWMAERLEDSVLKG [E12W] | 1.85 |
| FTSPDYQQQCHMMAERLEDSVLKG [E12M] | 1.89 |
| FTSPDYQQQCHSMAERLEDSVLKG [E12S] | 1.73 |
| FTSPDYQQQCHFMAERLEDSVLKG [E12F] | 3.35 |
| FTSPDYQQYCHEMAERLEDSVLKG [Q9Y] | 2.09 |
| FTSPDYQQWCHEMAERLEDSVLKG [Q9W] | 2.98 |
| FTSPDYQQTCHEMAERLEDSVLKG [Q9T] | 1.38 |
| FTSPDYQQPCHEMAERLEDSVLKG [Q9P] | 2.59 |
| FTSPDYQQRCHEMAERLEDSVLKG [Q9R] | 1.28 |
| FTSPDYQQHCHEMAERLEDSVLKG [Q9H] | 1.85 |
| FTSPDYQQACHEMAERLEDSVLKG [Q9A] | 1.95 |
| FTSPDYQQDCHEMAERLEDSVLKG [Q9D] | 3.87 |
| FTSPDYQQLCHEMAERLEDSVLKG [Q9L] | 1.7 |
| FTSPDYQQGCHEMAERLEDSVLKG [Q9G] | 1.92 |
| FTSPDYQQECHEMAERLEDSVLKG [Q9E] | 3.26 |
| FTSPDYQQSCHEMAERLEDSVLKG [Q9S] | 1.94 |
| FTSPDYQQKCHEMAERLEDSVLKG [Q9K] | 1.92 |
| FTSPDYQQICHEMAERLEDSVLKG [Q9I] | 1.29 |
| FTSPDYQQNCHEMAERLEDSVLKG [Q9N] | 1.52 |
| FTSPDYQQCCHEMAERLEDSVLKG [Q9C] | 1.84 |

| Variant | protein stability index |
| --- | --- |
| FTSPDYQQVCHEMAERLEDSVLKG [Q9V] | 2.21 |
| FTSPDYQQFCHEMAERLEDSVLKG [Q9F] | 2.12 |
| FTSPDYQQMCHEMAERLEDSVLKG [Q9M] | 2.08 |
| FTSPDYQQQPHEMAERLEDSVLKG [C10P] | 3.87 |
| FTSPDYQQQRHEMAERLEDSVLKG [C10R] | 3.69 |
| FTSPDYQQQTHEMAERLEDSVLKG [C10T] | 2.26 |
| FTSPDYQQQMHEMAERLEDSVLKG [C10M] | 2.41 |
| FTSPDYQQQHHEMAERLEDSVLKG [C10H] | 2.74 |
| FTSPDYQQQSHEMAERLEDSVLKG [C10S] | 2.87 |
| FTSPDYQQQLHEMAERLEDSVLKG [C10L] | 2.55 |
| FTSPDYQQQVHEMAERLEDSVLKG [C10V] | 2.29 |
| FTSPDYQQQQHEMAERLEDSVLKG [C10Q] | 3.47 |
| FTSPDYQQQNHEMAERLEDSVLKG [C10N] | 3.37 |
| FTSPDYQQQGHEMAERLEDSVLKG [C10G] | 3.29 |
| FTSPDYQQQYHEMAERLEDSVLKG [C10Y] | 3.3 |
| FTSPDYQQQKHEMAERLEDSVLKG [C10K] | 3.46 |
| FTSPDYQQQFHEMAERLEDSVLKG [C10F] | 2.14 |
| FTSPDYQQQIHEMAERLEDSVLKG [C10I] | 2.59 |
| FTSPDYQQQWHEMAERLEDSVLKG [C10W] | 2.05 |
| FTSPDYQQQDHEMAERLEDSVLKG [C10D] | 4.68 |
| FTSPDYQQQEHEMAERLEDSVLKG [C10E] | 4.53 |
| FTSPDYQQQAHEMAERLEDSVLKG [C10A] | 3.17 |
